Data on eleven substances can be found in US20080146500A1, “Selective Vpac2 Receptor Peptide Agonists” (priority 2004, published 2008).

The target in series [1] is T1, human VPAC2 (Homo sapiens, UniProt P41587).
T1 construct: expressed in transfected cells
T1 sequence (P41587 24-438): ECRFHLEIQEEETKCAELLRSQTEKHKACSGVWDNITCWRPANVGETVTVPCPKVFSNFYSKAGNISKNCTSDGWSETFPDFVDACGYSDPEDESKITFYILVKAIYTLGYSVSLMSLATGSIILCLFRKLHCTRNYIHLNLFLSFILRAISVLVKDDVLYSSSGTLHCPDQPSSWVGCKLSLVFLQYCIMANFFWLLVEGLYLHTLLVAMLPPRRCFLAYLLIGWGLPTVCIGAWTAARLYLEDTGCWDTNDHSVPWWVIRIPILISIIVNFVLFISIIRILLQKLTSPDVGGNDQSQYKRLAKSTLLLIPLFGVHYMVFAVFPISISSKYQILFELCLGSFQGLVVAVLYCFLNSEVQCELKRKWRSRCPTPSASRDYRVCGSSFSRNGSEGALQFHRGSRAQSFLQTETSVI
The experiment in a line: Alpha screen in vitro potency: human VPAC2-R mediated cAMP generation. It counts as cell-based. The conditions noted are these: single results or mean of two or more independent runs.

Series [2] has as its target T1, human VPAC2. As to the kind of experiment: Filter binding assay, membranes from stable VPAC2 cell line, 125I-labeled VIP tracer. The conditions noted are these: read-out: Human receptor binding (IC50; nM) VPAC2. The procedure: (§1) For this assay, the solutions and equipment include:
(§2) Presoak solution: 0.5% Polyethyleneamine in Aqua dest.
(§3) Buffer for flushing filter plates: 25 mM HEPES pH 7.4
(§4) Blocking buffer: 25 mM HEPES pH 7.4; 0.2% protease free BSA
(§5) Assay buffer: 25 mM HEPES pH 7.4; 0.5% protease free BSA
(§6) Dilution and assay plate: PS-Microplate, U form
(§7) Filtration Plate Multiscreen FB Opaque Plate; […] Type B Glasfiber filter
(§8) In order to prepare the filter plates, the presoak solution is aspirated by vacuum filtration. The plates are flushed twice with 200 μL flush buffer. 200 μL blocking buffer is added to the filter plate. The filter plate is then incubated with 200 μL presoak solution for 1 hour at room temperature.
(§9) The assay plate is filled with […] (2.5 μg) suspended in assay buffer, 25 μL compound (agonist) in assay buffer, and 25 μL tracer (about 40000 cpm) in assay buffer. The filled plate is incubated for 1 hour with shaking.
(§10) The transfer from assay plate to filter plate is conducted. The blocking buffer is aspirated by vacuum filtration and washed two times with flush buffer. 90 μL is transferred from the assay plate to the filter plate. The 90 μL transferred from assay plate is aspirated and washed three times with 200 μL flush buffer. The plastic support is removed. It is dried for 1 hour at 60° C. 30 μL Microscint is added. The count is performed.
(§11) Values reported are single results or the mean of two or more independent runs.

The target of a further series is T2, human VPAC1 (Homo sapiens, UniProt P32241).
T2 construct: expressed in transfected cells
T2 sequence (P32241 31-457): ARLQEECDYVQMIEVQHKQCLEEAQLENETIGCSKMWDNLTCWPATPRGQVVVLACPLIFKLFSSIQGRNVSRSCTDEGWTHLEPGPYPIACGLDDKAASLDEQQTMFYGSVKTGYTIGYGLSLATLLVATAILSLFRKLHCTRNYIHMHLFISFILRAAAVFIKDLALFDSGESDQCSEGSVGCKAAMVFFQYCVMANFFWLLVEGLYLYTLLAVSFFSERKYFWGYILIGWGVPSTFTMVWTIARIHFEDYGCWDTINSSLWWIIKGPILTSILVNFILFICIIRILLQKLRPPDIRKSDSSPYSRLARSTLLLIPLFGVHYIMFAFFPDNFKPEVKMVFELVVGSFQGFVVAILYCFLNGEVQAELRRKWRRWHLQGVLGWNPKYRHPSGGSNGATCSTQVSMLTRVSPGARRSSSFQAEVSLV
The experiment in a line: Filter binding assay, membranes from cells transiently transfected with human VPAC1, 125I-labeled VIP tracer. The settings on record: read-out: Human receptor binding (IC50; nM) VPAC1. The procedure: as §1, §2, §3, §4, §5, §6, §7, §8, §9, §10, §11

A further series addresses T3, human PAC1 (Homo sapiens, UniProt P41586).
T3 construct: expressed in transfected cells
T3 sequence (P41586 21-468): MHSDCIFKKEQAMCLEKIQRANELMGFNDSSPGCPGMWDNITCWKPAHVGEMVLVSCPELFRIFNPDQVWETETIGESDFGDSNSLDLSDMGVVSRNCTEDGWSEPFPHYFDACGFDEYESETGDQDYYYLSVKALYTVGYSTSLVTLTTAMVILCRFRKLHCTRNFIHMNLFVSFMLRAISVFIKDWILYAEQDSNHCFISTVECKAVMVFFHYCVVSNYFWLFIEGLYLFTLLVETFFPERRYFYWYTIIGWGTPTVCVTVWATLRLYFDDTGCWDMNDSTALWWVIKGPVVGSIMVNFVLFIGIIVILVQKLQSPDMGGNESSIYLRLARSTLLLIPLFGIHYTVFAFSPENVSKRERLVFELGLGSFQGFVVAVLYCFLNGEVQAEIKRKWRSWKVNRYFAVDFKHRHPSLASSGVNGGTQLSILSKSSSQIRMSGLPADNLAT
The experiment in a line: Filter binding assay, membranes from cells transiently transfected with human PAC1, 125I-labeled PACAP-27 tracer. The settings on record: read-out: Human receptor binding (IC50; nM) PAC1. As to the method:
as §1, §2, §3, §4, §5, §6, §7, §8, §9, §10, §11

The nature of series [3]: Rat serum stability at 37 C, remaining active peptide estimated by EC50,4C/EC50,37C in CHO-VPAC2 cAMP assay. As to the method:
The rat serum is stored at 4° C. until use and is used within two weeks.
On Day 0, two 100 μL aliquots of 10 μM peptide in rat serum are prepared by adding 10 μL peptide stock to 90 μL rat serum for each aliquot. 250 kIU aprotinin/mL is added to one of these aliquots. The aliquot is stored with aprotinin at 4° C. The aliquot is stored without aprotinin at 37° C. The aliquots are incubated for […].
On Day 1, after incubation of the aliquots prepared on day 0 for 24 hours, an incubation buffer containing PBS+1.3 mM CaCl2, 1.2 mM MgCl2, 2 mM glucose, and 0.25 mM IBMX is prepared. A plate with 11 serial 5× dilutions of peptide for the 4° C. and 37° C. aliquot is prepared for each peptide studied. […] The plate(s) are washed with cells twice in incubation buffer. The plates are allowed to hold 50 μL incubation media per well for 15 minutes. 50 μL solution per well is transferred to the cells from the plate prepared with 11 serial 5× dilutions of peptide for the 4° C. and 37° C. aliquot for each peptide studied, using the maximal concentrations that are indicated by the primary screen, in duplicate. This step dilutes the peptide concentration by a factor of two. The cells are incubated at room temperature for 30 minutes. The supernatant is removed. 40 μL/well of the DiscoveRx antibody/extraction buffer is added. The cells are incubated on the shaker (300 rpm) for 1 hour. Normal procedure with the DiscoveRx kit is followed. cAMP standards are included in column 12. EC50 values are determined from the cAMP assay data.

Series [4] is described as follows: Pharmacokinetic profiles of PEGylated peptides, plasma peptide by RIA. The conditions noted are these: rat, in vivo. The series is classed as in vivo, Fisher 344 rats. As to the method:
Pharmacokinetic profiles of PEGylated peptides. Healthy Fisher 344 rats (3 animals per group) are injected with 100 μg compound/kg (compound amount based on peptide content and dissolved in PBS buffer). […] PK parameters are then calculated using a model-independent method (WinNonlin Pro, Pharsight Corp., Mountain View, Calif., USA).

The next series deals with T4, rat VPAC2 receptor (Rattus norvegicus, UniProt P35000).
T4 construct: expressed in transfected cells; host or cells: CHO-PO cells, transient
T4 sequence (P35000 23-437): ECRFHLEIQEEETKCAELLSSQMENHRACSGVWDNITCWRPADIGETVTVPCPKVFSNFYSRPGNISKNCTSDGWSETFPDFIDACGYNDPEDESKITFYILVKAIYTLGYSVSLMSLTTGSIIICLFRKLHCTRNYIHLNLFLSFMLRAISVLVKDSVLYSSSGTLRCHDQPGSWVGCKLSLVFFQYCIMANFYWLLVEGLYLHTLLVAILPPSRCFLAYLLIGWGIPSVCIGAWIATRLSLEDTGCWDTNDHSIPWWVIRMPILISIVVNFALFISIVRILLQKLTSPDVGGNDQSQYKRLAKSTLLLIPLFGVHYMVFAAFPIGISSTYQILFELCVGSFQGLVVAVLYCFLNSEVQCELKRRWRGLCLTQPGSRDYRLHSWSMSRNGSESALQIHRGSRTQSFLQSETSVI
The experiment in a line: Rat VPAC2 in vitro potency (cAMP generation, DiscoveRx) in transiently transfected CHO-PO cells. It counts as cell-based. The settings on record: CHO-PO cells transiently transfected with rat VPAC2; read-out: rVPAC2 in vitro potency (cAMP generation) EC50. The procedure:
Rat receptor selectivity is estimated by comparing functional potency (cAMP generation) in CHO-PO cells transiently expressing rat VPAC1 or rat VPAC2 receptors. CHO-PO cells transiently expressing rat VPAC1 or VPAC2, are seeded with 10,000 cells/well three days before the assay. The cells are kept in 200 μL culture medium. […] The stimuli are present for 30 minutes. The assay buffer is then gently removed.

One may read the IC50 as the concentration that gives 50% inhibition. Usually Tmax stands for the time from dosing to the highest level. Broadly, the Vd/F is the volume of distribution divided by bioavailability.

Read-outs that look alike come from different tables or passages of the source. Square brackets hold non-standard residues; d marks the D form. Ends that are not written are not given here. * marks the point of attachment. Hexanoyl = CCCCCC(=O)*; Aib = CC(C)(N)C(=O)O

On to “P246 (Hexanoyl-HSDAVFTDNYTRLRRQVAAK(PEG 40 kDa)RYLQSIRNGGPSSGAPPPS) [Agonist P246]”, for which, in the series with human VPAC2 [1], the EC50 turned out to be 398 nM. Further, the concentration for half-maximal inhibition (IC50) was over 1000 nM with human VPAC2 [2] and over 25000 nM in the series with human VPAC1.

As to “C6-HSDAVFTDNYTRLRAibQVAAKAibYLQSIKNKRYGGPSSGAPPPC(PEG40K)-NH2 (Hexanoyl-HSDAVFTDNYTRLR[Aib]QVAAK[Aib]YLQSIKNKRYGGPSSGAPPPC(PEG 40 kDa)-NH2) [Agonist P286]”, in the series with human VPAC2 [1], the EC50 amounted to 6.65 nM. In addition, the concentration for half-maximal inhibition (IC50) with human VPAC2 [2] is 0.46 nM; with human PAC1, over 25000 nM; with human VPAC1 it was over 3000 nM. Further, the “Estimated 72 h stability (%)” value in series [3] (after 72 h in rat serum at 37 C, values >100% may represent release of intact peptide from the PEG conjugate) is recorded as 60.5%.

“P217 (Hexanoyl-HSDAVFTDNYTRLRK(PEG 20 kDa)QVAAK(PEG 20 kDa)RYLQSIRNGGPSSGAPPPS) [Compound P217]”: in series [4], the Cl/F amounted to 0.12 mL/min/kg, the Tmax stood at 20 h, the T½ was found to be 49 h and the Vd/F amounted to 0.421 L/kg.

Turning to “P247 (HSDAVFTDNYTRLRRQVAARKYLQSIRNGGPSSGAPPPS; not fully specified (residue 21, N-terminus)) [Agonist P247]”, in the series with human VPAC2 [1], the EC50 came to 133 nM. Further, the 50% inhibitory concentration (IC50) in the series with human VPAC2 [2] is 353 nM; with human VPAC1, over 25000 nM.

Consider “P217 (Hexanoyl-HSDAVFTDNYTRLRK(PEG 20 kDa)QVAAK(PEG 20 kDa)RYLQSIRNGGPSSGAPPPS) [Agonist P217]”, for which the EC50 with human VPAC2 [1] is over 3000 nM.

With “P219 (Hexanoyl-HSDAVFTDNYTRLRRQVAAK(PEG 20 kDa)RYLQSIRNGGPSSGAPPPS) [Agonist P219]”, the EC50 with human VPAC2 [1] was found to be 25.5 nM. Further, the IC50 was 67.9 nM with human VPAC2 [2] and over 25000 nM with human VPAC1.

Consider “P247 (HSDAVFTDNYTRLRRQVAARKYLQSIRNGGPSSGAPPPS; not fully specified (residue 21, N-terminus)) [Compound P247]”, for which the “Estimated 72 h stability (%)” value in series [3] is given as 16.7%.

In the series with human VPAC2 [1], “P245 (HSDAVFTDNYTRLRKQVAARRYLQSIRNGGPSSGAPPPS; not fully specified (residue 15, N-terminus)) [Agonist P245]” displayed an EC50 of 450 nM. The 50% inhibitory concentration (IC50) was 921 nM with human VPAC2 [2] and over 25000 nM with human VPAC1.

As for “P300 (Hexanoyl-HSDAVFTDNYTRLR[Aib]QVAA[Aib]KYLQSIKNKRYGGPSSGAPPPC(PEG 40 kDa)-NH2) [Agonist P300]”, the EC50 was 6.62 nM with human VPAC2 [1] and 5.8 nM with rat VPAC2 receptor. For the same substance, the IC50 was 1.76 nM with human VPAC2 [2], over 25000 nM in the series with human PAC1 and over 3000 nM with human VPAC1.

On to “P300 (Hexanoyl-HSDAVFTDNYTRLR[Aib]QVAA[Aib]KYLQSIKNKRYGGPSSGAPPPC(PEG 40 kDa)-NH2) [Compound P300]”, for which, in series [4], the Cl/F was 1.2 mL/min/kg, the time to peak (Tmax) turned out to be 10 h, the T½ is 15 h and the Vd/F worked out at 1.557 L/kg.

As to “P219 (Hexanoyl-HSDAVFTDNYTRLRRQVAAK(PEG 20 kDa)RYLQSIRNGGPSSGAPPPS) [Compound P219]”, the “Estimated 72 h stability (%)” value in series [3] is on record as 45.6%.
